From PMC4099074, “Palmitoylation of Gephyrin Controls Receptor Clustering and Plasticity of GABAergic Synapses” (PLoS Biology, 2014)
Several values for one entry are separate records, joined by “and”; a condition that tells them apart may be missing. Equal entries are not always repeated.

Target: the molecule itself
Experiment: SEC; lysates of control and 2-BP-treated primary hippocampal neurons; fifteen fractions immunoblotted for gephyrin and PSD-95; reference proteins for size

B1: gephyrin, endogenous in primary hippocampal neurons (natural protein, UniProt Q8BUV3 1-769, looked up)
chain: MATEGMILTNHDHQIRVGVLTVSDSCFRNLAEDRSGINLKDLVQDPSLLGGTISAYKIVPDEIEEIKETLIDWCDEKELNLILTTGGTGFAPRDVTPEATKEVIEREAPGMALAMLMGSLNVTPLGMLSRPVCGIRGKTLIINLPGSKKGSQECFQFILPALPHAIDLLRDAIVKVKEVHDELEDLPSPPPPLSPPPTTSPHKQTEDKGVQCEEEEEEKKDSGVASTEDSSSSHITAAALAAKIPDSIISRGVQVLPRDTASLSTTPSESPRAQATSRLSTASCPTPKQIRRPDESKGVASRVGSLKARLPSCSSTYSVSEVQSRCSSKENILRASHSAVDITKVARRHRMSPFPLTSMDKAFITVLEMTPVLGTEIINYRDGMGRVLAQDVYAKDNLPPFPASVKDGYAVRAADGPGDRFIIGESQAGEQPTQTVMPGQVMRVTTGAPIPCGADAVVQVEDTELIRESDDGTEELEVRILVQARPGQDIRPIGHDIKRGECVLAKGTHMGPSEIGLLATVGVTEVEVNKFPVVAVMSTGNELLNPEDDLLPGKIRDSNRSTLLATIQEHGYPTINLGIVGDNPDDLLNALNEGISRADVIITSGGVSMGEKDYLKQVLDIDLHAQIHFGRVFMKPGLPTTFATLDIDGVRKIIFALPGNPVSAVVTCNLFVVPALRKMQGILDPRPTIIKARLSCDVKLDPRPEYHRCILTWHHQEPLPWAQSTGNQMSSRLMSMRSANGLLMLPPKTEQYVELHKGEVVDVMVIGRL
notes: gephyrin, endogenous; A fraction of it is palmitoylated on Cys212 and Cys284 (7.5% in mouse brain); also called native neuronal gephyrin; gephyrin (83 kDa); source: endogenous, lysates of primary hippocampal neurons (control and 2-BP-treated)
Q: For B1, which “stoichiometry N” value is on record?
A: 6 and 9
